We go through one molecule from doi:10.1101/2022.08.12.503727.

In the data set the target is T1, RBP45d (Arabidopsis thaliana, UniProt Q8VXZ9 1-425).
T1 sequence: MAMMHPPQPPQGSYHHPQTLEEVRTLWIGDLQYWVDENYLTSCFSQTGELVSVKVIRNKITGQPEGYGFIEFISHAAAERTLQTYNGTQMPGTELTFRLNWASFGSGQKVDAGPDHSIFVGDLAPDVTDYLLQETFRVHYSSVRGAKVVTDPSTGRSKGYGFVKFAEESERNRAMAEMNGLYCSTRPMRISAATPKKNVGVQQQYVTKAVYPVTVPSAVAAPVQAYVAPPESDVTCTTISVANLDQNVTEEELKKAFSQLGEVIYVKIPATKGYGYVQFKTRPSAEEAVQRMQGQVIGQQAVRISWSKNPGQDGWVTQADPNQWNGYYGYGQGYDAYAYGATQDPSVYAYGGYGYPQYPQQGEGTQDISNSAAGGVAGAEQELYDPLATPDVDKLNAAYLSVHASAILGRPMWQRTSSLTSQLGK
The data set is described as follows: EMSA.

B1: Cy5-LPD1-IN2 (ssRNA)
RNA: GUUUUGUUCGGUUUUGGUUUAGAUUUUUG
For B1, the binding result is “binds”.
